Reference: the supplement of paper PMC9112550, “Optimization of the antimicrobial peptide Bac7 by deep mutational scanning” (BMC Biology, 2022)

Test system: Escherichia coli TOP10
Assay: shrunken log2 fold change of peptide-encoding DNA abundance (4.5 h post-induction vs induction); higher = less antimicrobial activity (less host growth inhibition)
Conditions: time post-induction: 4.5 h; library: site-saturation at positions 5, 18, 19, 20
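Also: peptides expressed intracellularly from a pBAD plasmid library in pooled LB shake-flask culture, induced with 0.3% L-arabinose, DNA abundance read by NGS, three biological replicates, DESeq2 with apeglm shrinkage.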

Row | Sequence | shrunken log2 fold change
1 | RRIRERPPRLPRPRPRPVRFPRP | 0.431
2 | RRIRLRPPRLPRPRPRPPDQPRP | 0.349
3 | RRIRERPPRLPRPRPRPEPEPRP | 0.475
4 | RRIRVRPPRLPRPRPRPEENPRP | 0.265
5 | RRIRCRPPRLPRPRPRPHMFPRP | -0.348
6 | RRIRIRPPRLPRPRPRPNHGPRP | -0.413
7 | RRIRMRPPRLPRPRPRPPYKPRP | -0.163
8 | RRIRVRPPRLPRPRPRPAKEPRP | 0.226
9 | RRIRDRPPRLPRPRPRPVFYPRP | -0.301
10 | RRIRRRPPRLPRPRPRPMQIPRP | 0.58
11 | RRIRSRPPRLPRPRPRPMWSPRP | 0.284
12 | RRIRHRPPRLPRPRPRPMLLPRP | 0.0408
13 | RRIRVRPPRLPRPRPRPKAMPRP | 0.0194
14 | RRIRMRPPRLPRPRPRPHSNPRP | 0.0878
15 | RRIRGRPPRLPRPRPRPLDPPRP | 0.9
16 | RRIRTRPPRLPRPRPRPRNNPRP | -0.803
17 | RRIRSRPPRLPRPRPRPAISPRP | 0.153
18 | RRIRNRPPRLPRPRPRPHDIPRP | -0.0337
19 | RRIRRRPPRLPRPRPRPFVEPRP | -0.142
20 | RRIRPRPPRLPRPRPRPKQFPRP | -0.313
21 | RRIRPRPPRLPRPRPRPGPYPRP | -0.0184
22 | RRIRHRPPRLPRPRPRPYCEPRP | -0.114
23 | RRIRDRPPRLPRPRPRPIFRPRP | -0.202
24 | RRIRFRPPRLPRPRPRPQHSPRP | -0.347
25 | RRIRWRPPRLPRPRPRPSSYPRP | -0.123

Row | Sequence | shrunken log2 fold change
26 | RRIRCRPPRLPRPRPRPFFSPRP | -0.242
27 | RRIRWRPPRLPRPRPRPEPLPRP | 0.417
28 | RRIRWRPPRLPRPRPRPDQPPRP | 0.234
29 | RRIRERPPRLPRPRPRPMYNPRP | -0.301
30 | RRIRFRPPRLPRPRPRPCLCPRP | -0.0404
31 | RRIRRRPPRLPRPRPRPAPRPRP | 0.996
32 | RRIRQRPPRLPRPRPRPTLQPRP | 0.276
33 | RRIRVRPPRLPRPRPRPESFPRP | -0.0103
34 | RRIRRRPPRLPRPRPRPKDVPRP | 0.159
35 | RRIRDRPPRLPRPRPRPPHEPRP | 0.00485
36 | RRIRRRPPRLPRPRPRPCNYPRP | 0.159
37 | RRIRPRPPRLPRPRPRPRATPRP | 0.261
38 | RRIRLRPPRLPRPRPRPGGMPRP | -0.16
39 | RRIRGRPPRLPRPRPRPPGKPRP | 0.807
40 | RRIRTRPPRLPRPRPRPEPQPRP | 0.927
41 | RRIRFRPPRLPRPRPRPRGCPRP | 0.433
42 | RRIRGRPPRLPRPRPRPFIPPRP | -0.429
43 | RRIRGRPPRLPRPRPRPSTNPRP | 0.271
44 | RRIRVRPPRLPRPRPRPHKLPRP | -0.317
45 | RRIRWRPPRLPRPRPRPSNYPRP | -0.707
46 | RRIRIRPPRLPRPRPRPMSYPRP | 0.0721
47 | RRIRYRPPRLPRPRPRPLLGPRP | -0.25
48 | RRIRQRPPRLPRPRPRPRIGPRP | 0.341
49 | RRIRARPPRLPRPRPRPIYTPRP | -0.387
50 | RRIRRRPPRLPRPRPRPGTHPRP | 0.243

Row | Sequence | shrunken log2 fold change
51 | RRIRARPPRLPRPRPRPFRRPRP | -0.0278
52 | RRIRSRPPRLPRPRPRPQFPPRP | -0.00708
53 | RRIRRRPPRLPRPRPRPTVAPRP | 0.699
54 | RRIRQRPPRLPRPRPRPSEAPRP | 0.17
55 | RRIRCRPPRLPRPRPRPTYVPRP | -0.259
56 | RRIRHRPPRLPRPRPRPHQDPRP | -0.249
57 | RRIRPRPPRLPRPRPRPQHPPRP | 0.0328
58 | RRIRARPPRLPRPRPRPFWTPRP | 0.29
59 | RRIRGRPPRLPRPRPRPQDKPRP | 0.0315
60 | RRIRNRPPRLPRPRPRPHKPPRP | -0.368
61 | RRIRQRPPRLPRPRPRPPWDPRP | 0.224
62 | RRIRIRPPRLPRPRPRPGSIPRP | -0.471
63 | RRIRRRPPRLPRPRPRPCLSPRP | -0.114
64 | RRIRDRPPRLPRPRPRPAHEPRP | -0.0156
65 | RRIRWRPPRLPRPRPRPAAAPRP | 1.21
66 | RRIRGRPPRLPRPRPRPSCNPRP | 0.588
67 | RRIRWRPPRLPRPRPRPTQVPRP | 0.477
68 | RRIRGRPPRLPRPRPRPANNPRP | 0.138
69 | RRIRPRPPRLPRPRPRPDGHPRP | 0.0433
70 | RRIRKRPPRLPRPRPRPHAGPRP | 0.143
71 | RRIRFRPPRLPRPRPRPGVIPRP | -0.356
72 | RRIRWRPPRLPRPRPRPPMRPRP | 1.18
73 | RRIRSRPPRLPRPRPRPEWHPRP | 0.0472
74 | RRIRQRPPRLPRPRPRPLRYPRP | -0.0738
75 | RRIRFRPPRLPRPRPRPFMEPRP | -0.728

Row | Sequence | shrunken log2 fold change
76 | RRIRERPPRLPRPRPRPMEHPRP | 0.0106
77 | RRIRERPPRLPRPRPRPCNMPRP | -0.101
78 | RRIRGRPPRLPRPRPRPPIQPRP | 0.341
79 | RRIRQRPPRLPRPRPRPCMYPRP | -0.166
80 | RRIRNRPPRLPRPRPRPRAIPRP | 0.064
81 | RRIRIRPPRLPRPRPRPICEPRP | -0.0283
82 | RRIRCRPPRLPRPRPRPCIVPRP | -0.718
83 | RRIRHRPPRLPRPRPRPHMCPRP | -0.0681
84 | RRIRIRPPRLPRPRPRPCMVPRP | -1.06
85 | RRIRLRPPRLPRPRPRPQCTPRP | 0.0199
86 | RRIRARPPRLPRPRPRPDDSPRP | 0.124
87 | RRIRKRPPRLPRPRPRPVRDPRP | 0.48
88 | RRIRRRPPRLPRPRPRPNFWPRP | 0.198
89 | RRIRARPPRLPRPRPRPKMYPRP | 0.152
90 | RRIRYRPPRLPRPRPRPWNVPRP | -0.0218
91 | RRIRGRPPRLPRPRPRPDAMPRP | 2.4
92 | RRIRHRPPRLPRPRPRPWENPRP | 0.0621
93 | RRIRMRPPRLPRPRPRPAVHPRP | 0.0654
94 | RRIRKRPPRLPRPRPRPSTGPRP | -0.284
95 | RRIRPRPPRLPRPRPRPKEHPRP | -0.202
96 | RRIRPRPPRLPRPRPRPSDNPRP | -0.449
97 | RRIRWRPPRLPRPRPRPIHVPRP | -0.0677
98 | RRIRMRPPRLPRPRPRPYCYPRP | -0.13
99 | RRIRWRPPRLPRPRPRPCCNPRP | -0.0508
100 | RRIRFRPPRLPRPRPRPQSMPRP | -0.434

Row | Sequence | shrunken log2 fold change
101 | RRIRMRPPRLPRPRPRPVGDPRP | 0.173
102 | RRIRKRPPRLPRPRPRPKTIPRP | 0.0745
103 | RRIRYRPPRLPRPRPRPTGAPRP | 0.136
104 | RRIRERPPRLPRPRPRPNIPPRP | -0.396
105 | RRIRLRPPRLPRPRPRPRKDPRP | 0.0699
106 | RRIRFRPPRLPRPRPRPEQCPRP | 0.285
107 | RRIRKRPPRLPRPRPRPIIPPRP | 0.152
108 | RRIRCRPPRLPRPRPRPEEEPRP | 0.375
109 | RRIRMRPPRLPRPRPRPCIPPRP | -0.159
110 | RRIRVRPPRLPRPRPRPLKKPRP | 0.181
111 | RRIRLRPPRLPRPRPRPLRMPRP | 0.222
112 | RRIRHRPPRLPRPRPRPFVHPRP | -0.836
113 | RRIRSRPPRLPRPRPRPHLHPRP | -0.177
114 | RRIRSRPPRLPRPRPRPEKSPRP | -0.32
115 | RRIRSRPPRLPRPRPRPCCKPRP | 0.0569
116 | RRIRTRPPRLPRPRPRPESVPRP | -0.0229
117 | RRIRQRPPRLPRPRPRPCIHPRP | -0.734
118 | RRIRNRPPRLPRPRPRPWTWPRP | -0.0415
119 | RRIRPRPPRLPRPRPRPYHWPRP | -0.449
120 | RRIRDRPPRLPRPRPRPSTTPRP | 0.0945
121 | RRIRYRPPRLPRPRPRPDPLPRP | -0.0227
122 | RRIRQRPPRLPRPRPRPSNMPRP | -0.459
123 | RRIRPRPPRLPRPRPRPQPYPRP | -0.177
124 | RRIRPRPPRLPRPRPRPDDRPRP | 0.162
125 | RRIRTRPPRLPRPRPRPYGMPRP | -0.0576
